Series [1] concerns dipeptidyl-peptidase-IV. The note with it: degraded by dipeptidyl-peptidase-IV via cleavage of two N-terminal residues; cited from earlier work.
In series [2] the test system is INS-1 tumor mice. Nature of the series: Ex vivo biodistribution in INS-1 tumor mice. Further details: species or system mouse. Particulars: control group, dissected tissue, γ-counter, 2 h post injection, n = 5, mean ± SD.

The source of these data is publication PMC4224565 (Molecular Pharmaceutics, 2014).

Consider “GLP-1: glucose-dependent hormone released mainly from the small intestine”, for which the half-life in vivo entry in series [1] is “less than 2 min”.
With `O=C(NCCN1C(=O)C=CC1=O)c1ccc(F)nc1` [[^18F]FNEM, N-(2-(2,5-Dioxo-2,5-dihydro-1H-pyrrol-1-yl)ethyl)-6-fluoronicotinamide], in series [2], the “INS-1 tumor uptake (biodistribution)” value amounted to 23.06 ± 3.87%ID/g.
